In paper PMC6033355 one finds Kd and Ki data, which are given here for 2 substances.

pKd, pKi: −log10 of the molar value.

Assay [1] has as its target HD_(N-TIMP2,V3) bi-specific heterodimer (N-TIMP2 fused by a linker to V3, the engineered soluble extracellular domain of the IL-17A receptor, with human IgG1 Fc and 6xHis). In words: BLI; Octet Red; HD_(N-TIMP2,V3) or V3 loaded on Protein A sensors (10 ug/ml, 300 s); IL-17A or MMP-9CAT in solution at 50, 100, 200 nM; 300 s association, 1800-2500 s dissociation; 30 C; PBS, 1% BSA, 0.05% Tween; 1:1 binding model.

The target of assay [2] is V3, soluble IL-17RA (extracellular domain of the IL-17A receptor with point mutations that increase affinity for IL-17A). The assay is described as above.
Assay [3] deals with MMP-9 catalytic domain (Homo sapiens) (UniProt P14780). The following applies: cited from earlier work.
Chain of MMP-9 catalytic domain (Homo sapiens) (P14780 107-443): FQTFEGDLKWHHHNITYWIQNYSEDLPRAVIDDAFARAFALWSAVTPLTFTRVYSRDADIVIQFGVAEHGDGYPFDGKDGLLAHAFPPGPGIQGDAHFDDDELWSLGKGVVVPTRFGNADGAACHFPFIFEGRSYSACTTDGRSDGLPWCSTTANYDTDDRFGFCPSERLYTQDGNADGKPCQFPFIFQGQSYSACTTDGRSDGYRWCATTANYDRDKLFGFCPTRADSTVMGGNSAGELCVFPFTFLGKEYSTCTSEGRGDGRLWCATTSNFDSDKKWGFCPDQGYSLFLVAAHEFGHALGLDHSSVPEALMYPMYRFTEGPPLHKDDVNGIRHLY

Chain of IL-17A (interleukin-17A) (Q16552 24-155): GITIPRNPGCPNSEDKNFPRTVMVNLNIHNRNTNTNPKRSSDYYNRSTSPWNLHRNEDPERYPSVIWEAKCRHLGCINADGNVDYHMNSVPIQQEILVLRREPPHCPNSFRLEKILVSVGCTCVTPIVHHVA
Chain of N-TIMP2 N-terminal domain (P16035 27-153): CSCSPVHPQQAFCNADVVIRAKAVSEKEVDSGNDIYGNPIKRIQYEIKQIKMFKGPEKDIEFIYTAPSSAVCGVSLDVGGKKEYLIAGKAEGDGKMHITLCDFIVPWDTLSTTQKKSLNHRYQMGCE

What is called pKd is the negative decadic logarithm of the Kd, by convention in mol/L. For the substance “IL-17A (interleukin-17A) (from UniProt Q16552 24-155) (ligand)”, the negative-log Kd (pKd) in assay [1] is 10.32; in assay [2], 9.91. By pKi is commonly meant −log10 of the Ki, conventionally taken in molar units. Turning to “N-TIMP2 N-terminal domain (from UniProt P16035)”, the pKi in assay [3] is 10.00.
